Test [1] concerns the target T1, GBD-OsMYBS3 fusion protein (yeast; rice).
T1 construct: Two-hybrid bait
As to the kind of experiment: two-hybrid in barley aleurone cells, luciferase reporter; similar results in yeast two-hybrid. The method, then: (§1) In c-Myb, R2 and R3 bind to specific DNA sequences cooperatively. To test the possibility that OsMYBS binds DNA as dimers, homologous and heterologous interactions among OsMYBS proteins were analyzed using a two-hybrid system in barley aleurone cells. The full-length OsMYBS sequences were individually fused at the C-terminus of GAD or GBD. The GAD-OsMYBS and GBD-OsMYBS chimeric genes were fused downstream of the Ubi promoter and used as effector constructs. A DNA fragment containing five tandem repeats of UAS (5×UAS) was fused upstream of the CaMV35S minimal promoter-Luc chimeric gene and used as a reporter construct. The barley half seeds were particle-bombarded simultaneously with two effector plasmids, each containing GAD-OsMYBS and GBD-OsMYBS fusion genes, and the reporter plasmid. The bombarded half seeds were incubated in buffer without glucose for 24 h, and luciferase activity was determined. […] Except that the background level of reporter gene expression in the presence of GBD-OsMYBS1 alone is too high to detect the interactions between GBD-OsMYBS1 and GAD-OsMYBS proteins, similar results were obtained with the yeast two-hybrid experiments.

In test [2] the target is T2, GBD-OsMYBS2 fusion protein (yeast; rice).
T2 construct: Two-hybrid bait
Described as above. As for the experimental part: as §1

The target in test [3] is T3, GBD-OsMYBS1 fusion protein (yeast; rice, UniProt P04386 1-147).
T3 construct: Two-hybrid bait expressed from the Ubi promoter in barley aleurone cells
Kind of test: two-hybrid in barley aleurone cells, luciferase reporter. The method, then:
as §1
(Reporter assays use an easily measured gene product as a stand-in for the process of interest.)

B1: GAD-OsMYBS1 fusion protein (other)
chain: MTSQAATTTTTAAAAAAWTREDDKAFENALAACAAPPPADGGAPDDDWFAALAASVPGARSAEEVRRHYEALVEDVAAIDAGRVPLPRYAGEESAAPPDGAGAAAAASKDGGHRRDERKGGGGGYDGGKSCSKAEQERRKGIPWTEEEHRLFLLGLDKFGKGDWRSISRNFVISRTPTQVASHAQKYFIRLNSMNRDRRRSSIHDITSVTAGDQVAAQQGAPITGHQATGNPAAAALGPPGMKHHHHHHPGGAPPPMPMYSAAPMGHPVAGHMVPAAVGTPVVFPPGHAPYVVPVGYPAPPAKMHQ
notes: Two-hybrid prey expressed from the Ubi promoter in barley aleurone cells; not shown: limits not
On to B1, for which the binding result in test [1] and in test [2] was “no binding” in each case.

B2: GAD-OsMYBS3 fusion protein (other)
chain: MTRRCSHCSHNGHNSRTCPNRGVKIFGVRLTDGSIRKSASMGNLSLLSSAAGSTSGGASPADGPDAAPTAADGYASDDFVQGFSSATRDRKKGVPWTEEEHRRFLLGLQKLGKGDWRGISRNFVVSRTPTQVASHAQKYFIRQSNMTRRKRRSSLFDMVPDESMDLPPLPGGQEPETQVLNQPALPPPKEEEEVDSMESDTSAVAESSSASAIMPDNLQSTYPVIVPAYFSPFLQFSVPFWQNQKDEDGPVQETHEIVKPVPVHSKSPINVDELVGMSKLSIGESNQETESTSLSLNLVGGQNRQSAFHANPPTRAQA
notes: as for B1
Turning to B2, the binding result in test [1], in test [2] and in test [3] was “no binding” each time.

These data come from US20040107456A1 (ACADEMIA SINICA, published 2004).
